Patent US20220064272A1 (TAUC3 BIOLOGICS, published 2022)
Where “and” joins values, the source holds several entries; their conditions need not be identical. Equal values may be shown once. Each block holds one binder with its values, some of them ahead of it.

How the values were obtained:
[1] = molecular target: T1, TauC3 (C-terminally truncated tau fragment ending at aspartate 421 of htau40) (human, UniProt P10636 1-738); assay: binding ELISA on coated TauC3, OD650
T1 construct: Generated and purified by Genscript; also called Human TauC3; recombinant TauC3 protein
Method in brief: (§1)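 EC50 values come from antibody concentration-response curves in a binding ELISA on coated TauC3 antigen. The chimeric or humanized IgG4κ antibodies were produced in ExpiCHO cells, and binding was measured as absorbance at 650 nm.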

[2] = molecular target: T1, TauC3 (C-terminally truncated tau …); assay: SPR (Biacore) kinetics, TauC3 amine-coupled on CM5, 1:1 global fit
Method in brief: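 Each purified antibody was injected at a series of concentrations over a CM5 chip carrying amine-coupled purified antigen, with readout by Biacore surface plasmon resonance. A global fit gave Kd together with the association and dissociation rates. The fit model was 1:1.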

[3] = molecular target: T1, TauC3 (C-terminally truncated tau …); assay: Biacore kinetics, TauC3 amine-coupled on CM5, antibody series, 1:1 global fit
Excerpt: To determine the affinity of the binding interactions, a biacore kinetic assay was developed which involved immobilizing TauC3 on a CM5 chip via amine coupling and injecting a concentration series of the respective antibody over it.

[4] = molecular target: T1, TauC3 (C-terminally truncated tau …); assay: Biacore off-rate ranking, TauC3 amine-coupled on CM5, one antibody concentration; one-phase exponential decay fit
Procedure: (§2) To further evaluate the binding data observed on the Octet, an off-rate ranking experiment was performed on the Biacore 200 instrument. Biacore offers greater selectivity than the Octet and facilitated the immobilization of TauC3 onto a CM5 chip via amine coupling which stabilizes the antigen. This produces higher quality data with stable baselines and good reproducible responses. Once TauC3 is immobilized, one concentration (5 nM) of antibody is added, followed by a dissociation and regeneration step (Section 8.20). The off-rates were fitted using a two-phase decay model (FIG. 25B) or a one phase decay fitting only the second off-rate (FIG. 25A). The candidates were then ranked based on the off-rates obtained using the fits and compared. The data agreed with the Octet results (albeit with a different ranking order), highlighting Tau01 HMKM, HMKO, HMKP, HMKN and HMKE as the humanized variants with the slowest off-rates. The lack of binding of FL Tau to chimeric and a humanized candidate was also confirmed by Biacore by loading the antibody onto a Protein G chip and adding 250 nM FL Tau.

[5] = molecular target: T1, TauC3 (C-terminally truncated tau …); assay: Biacore off-rate ranking, TauC3 amine-coupled on CM5, one antibody concentration; two-phase decay fit, slow phase; parameters: unit not given here
Procedure: as §2

[6] = molecular target: T1, TauC3 (C-terminally truncated tau …); assay: binding ELISA on coated TauC3, OD650; left table (HC variants)
Method in brief: as §1

[7] = molecular target: T1, TauC3 (C-terminally truncated tau …); assay: binding ELISA on coated TauC3, OD650; remark: listed apart in the source
Method in brief: as §1

[8] = molecular target: T1, TauC3 (C-terminally truncated tau …); assay: binding ELISA on coated TauC3, OD650; right table (HM variants)
Method in brief: as §1

T1 sequence (P10636 other isoform, or with tags, fused parts or gaps): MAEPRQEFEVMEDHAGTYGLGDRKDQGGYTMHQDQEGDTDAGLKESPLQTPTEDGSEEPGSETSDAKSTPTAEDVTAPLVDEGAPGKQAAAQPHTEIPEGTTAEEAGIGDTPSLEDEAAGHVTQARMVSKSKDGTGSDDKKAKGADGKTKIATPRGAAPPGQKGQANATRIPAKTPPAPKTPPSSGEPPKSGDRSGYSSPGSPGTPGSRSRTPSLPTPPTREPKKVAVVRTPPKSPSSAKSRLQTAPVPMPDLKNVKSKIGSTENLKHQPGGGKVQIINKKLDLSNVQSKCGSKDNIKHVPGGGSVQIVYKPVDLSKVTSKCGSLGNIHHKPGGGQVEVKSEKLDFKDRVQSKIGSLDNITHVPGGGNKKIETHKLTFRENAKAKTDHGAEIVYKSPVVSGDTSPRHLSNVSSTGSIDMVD

B1: HBKD (antibody, V domains shown)
VH: EVQVVESGGGLVQPGGSLKLSCAASGFTFNTYAMNWVRQASGKGLEWVARIRSKSNNYATYYADSVKGRFTISRDDSKSMVYLQMDSLKTEDTAVYYCVGGGDFWGQGTLVTVSS
VL: DIQMTQSPSSLSASVGDRVTITCRASQEISVYLSWYQQKPGKAPKRLIYGAFKLQSGVPSRFSGSRSGTEFTLTISSLQPEDFATYYCLQYVRYPWTFGGGTKVEIK
notes: humanized variant, HB with KD; also called Tau01 HBKD HuG4K
EC50 [1]: 3.04 nM

B4: HCKF (antibody, V domains shown)
VH: LVQLVESGGGLVQPGGSLKLSCAASGFTFNTYAMNWVRQASGKGLEWVGRIRSKSNNYATYYAASVKGRFTISRDDSKSMAYLQMDSLKTEDTAVYYCVGGGDFWGQGTLVTVSS
VL: DIQMTQSPSSLSASVGDRVTITCRASQEISVYLGWYQQKPGKAIKRLIYGAFKLQSGVPSRFSGSRSGTEFTLTISSLQPEDFATYYCLQYVRYPWTFGGGTKVEIK
notes: humanized variant, HC with KF; also called Tau01 HCKF HuG4K
EC50 [7]: 2.25 nM

B5: Tau01 HBKG (antibody, V domains shown)
VH: EVQVVESGGGLVQPGGSLKLSCAASGFTFNTYAMNWVRQASGKGLEWVARIRSKSNNYATYYADSVKGRFTISRDDSKSMVYLQMDSLKTEDTAVYYCVGGGDFWGQGTLVTVSS
VL: DIQMTQSPSSLSASVGDRVTITCRASQEISVYLGWYQQKPGKAPKRLIYGAFTLQSGVPSRFSGSRSGTEFTLTISSLQPEDFATYYCLQYVRYPWTFGGGTKVEIK
notes: human IgG4 kappa (HuG4K)
EC50 [1]: 0.761 nM

B6: HBKF (antibody, V domains shown)
VH: EVQVVESGGGLVQPGGSLKLSCAASGFTFNTYAMNWVRQASGKGLEWVARIRSKSNNYATYYADSVKGRFTISRDDSKSMVYLQMDSLKTEDTAVYYCVGGGDFWGQGTLVTVSS
VL: DIQMTQSPSSLSASVGDRVTITCRASQEISVYLGWYQQKPGKAIKRLIYGAFKLQSGVPSRFSGSRSGTEFTLTISSLQPEDFATYYCLQYVRYPWTFGGGTKVEIK
notes: humanized variant, HB with KF; also called Tau01 HBKF HuG4K
EC50 [1]: 0.786 nM

B8: HBKH (antibody, V domains shown)
VH: EVQVVESGGGLVQPGGSLKLSCAASGFTFNTYAMNWVRQASGKGLEWVARIRSKSNNYATYYADSVKGRFTISRDDSKSMVYLQMDSLKTEDTAVYYCVGGGDFWGQGTLVTVSS
VL: DIQMTQSPSSLSASVGDRVTITCRASQEISVYLGWYQQKPGKAPKRLIYGAFKLQSGVPSRFSGSRSGSEFTLTISSLQPEDFATYYCLQYVRYPWTFGGGTKVEIK
notes: humanized variant, HB with KH; also called Tau01 HBKH HuG4K
EC50 [1]: 0.807 nM

B9: Tau01 HCKL (antibody, V domains shown)
VH: LVQLVESGGGLVQPGGSLKLSCAASGFTFNTYAMNWVRQASGKGLEWVGRIRSKSNNYATYYAASVKGRFTISRDDSKSMAYLQMDSLKTEDTAVYYCVGGGDFWGQGTLVTVSS
VL: DIQMTQSPSSLSASVGDRVTITCRASQEISVYLSWFQQKPGKAIKRLIYGAFKLQSGVPSRFSGSRSGTEYTLTISSLQPEDFATYYCLQYVRYPWTFGGGTKVEIK
notes: human IgG4 kappa (HuG4K)
EC50 [6]: 0.835 nM

B12: HCKD (antibody, V domains shown)
VH: LVQLVESGGGLVQPGGSLKLSCAASGFTFNTYAMNWVRQASGKGLEWVGRIRSKSNNYATYYAASVKGRFTISRDDSKSMAYLQMDSLKTEDTAVYYCVGGGDFWGQGTLVTVSS
VL: DIQMTQSPSSLSASVGDRVTITCRASQEISVYLSWYQQKPGKAPKRLIYGAFKLQSGVPSRFSGSRSGTEFTLTISSLQPEDFATYYCLQYVRYPWTFGGGTKVEIK
notes: humanized variant, HC with KD; also called Tau01 HCKD HuG4K
EC50 [7]: 2.02 nM

B13: Tau01 HBKE (antibody, V domains shown)
VH: EVQVVESGGGLVQPGGSLKLSCAASGFTFNTYAMNWVRQASGKGLEWVARIRSKSNNYATYYADSVKGRFTISRDDSKSMVYLQMDSLKTEDTAVYYCVGGGDFWGQGTLVTVSS
VL: DIQMTQSPSSLSASVGDRVTITCRASQEISVYLGWFQQKPGKAPKRLIYGAFKLQSGVPSRFSGSRSGTEFTLTISSLQPEDFATYYCLQYVRYPWTFGGGTKVEIK
notes: human IgG4 kappa (HuG4K)
EC50 [1]: 0.915 nM

B15: Tau01 HBKI (antibody, V domains shown)
VH: EVQVVESGGGLVQPGGSLKLSCAASGFTFNTYAMNWVRQASGKGLEWVARIRSKSNNYATYYADSVKGRFTISRDDSKSMVYLQMDSLKTEDTAVYYCVGGGDFWGQGTLVTVSS
VL: DIQMTQSPSSLSASVGDRVTITCRASQEISVYLGWYQQKPGKAPKRLIYGAFKLQSGVPSRFSGSRSGTEYTLTISSLQPEDFATYYCLQYVRYPWTFGGGTKVEIK
notes: human IgG4 kappa (HuG4K)
EC50 [1]: 0.705 nM

B16: Tau01 HBKJ (antibody, V domains shown)
VH: EVQVVESGGGLVQPGGSLKLSCAASGFTFNTYAMNWVRQASGKGLEWVARIRSKSNNYATYYADSVKGRFTISRDDSKSMVYLQMDSLKTEDTAVYYCVGGGDFWGQGTLVTVSS
VL: DIQMTQSPSSLSASVGDRVTITCRASQEISVYLGWYQQKPGKAPKRLIYGAFSLQSGVPSRFSGSRSGTEFTLTISSLQPEDFATYYCLQYVRYPWTFGGGTKVEIK
notes: human IgG4 kappa (HuG4K)
EC50 [1]: 0.811 nM

More lines, now with the values ahead:

Kd [2]: 0.11 nM
koff [2]: 0.0181 s⁻¹
kon [2]: 1.65e+08 M⁻¹ s⁻¹
koff [3]: 0.0181 s⁻¹
koff [4]: 0.000264 s⁻¹
Kslow [5]: 0.000553
B2: Tau01 HMKM HuG4k (antibody, V domains shown)
VH: LVQLVESGGGLVQPGGSLKLSCAASGFTFNTYAMNWVRQASGKGLEWVARIRSKSNNYATYYAASVKGRFTISRDDSKSMAYLQMDSLKTEDTAVYYCVGGGDFWGQGTLVTVSS
VL: DIQMTQSPSSLSASVGDRVTITCRASQEISVYLSWFQQKPGKAIKRLIYGAFSLQSGVPSRFSGSRSGTEYTLTISSLQPEDFATYYCLQYVRYPWTFGGGTKVEIK
notes: human IgG4 kappa (HuG4K)

EC50 [6]: 0.574 nM
B3: Tau01 HCKN (antibody, V domains shown)
VH: LVQLVESGGGLVQPGGSLKLSCAASGFTFNTYAMNWVRQASGKGLEWVGRIRSKSNNYATYYAASVKGRFTISRDDSKSMAYLQMDSLKTEDTAVYYCVGGGDFWGQGTLVTVSS
VL: DIQMTQSPSSLSASVGDRVTITCRASQEISVYLGWYQQKPGKAPKRLIYGAFTLQSGVPSRFSGSRSGTEYTLTISSLQPEDFATYYCLQYVRYPWTFGGGTKVEIK
notes: human IgG4 kappa (HuG4K)

EC50 [8]: 0.433 nM and 0.718 nM
koff [4]: 0.000843 s⁻¹
Kslow [5]: 0.000711
B7: Tau01 HMKC (antibody, V domains shown)
VH: LVQLVESGGGLVQPGGSLKLSCAASGFTFNTYAMNWVRQASGKGLEWVARIRSKSNNYATYYAASVKGRFTISRDDSKSMAYLQMDSLKTEDTAVYYCVGGGDFWGQGTLVTVSS
VL: DIQMTQSPSSLSASVGDRVTITCRASQEISVYLSWFQQKPGKAPKRLIYGAFKLQSGVPSRFSGSRSGTEYTLTISSLQPEDFATYYCLQYVRYPWTFGGGTKVEIK
notes: human IgG4 kappa (HuG4K)

EC50 [6]: 0.821 nM
B10: Tau01 HCKP (antibody, V domains shown)
VH: LVQLVESGGGLVQPGGSLKLSCAASGFTFNTYAMNWVRQASGKGLEWVGRIRSKSNNYATYYAASVKGRFTISRDDSKSMAYLQMDSLKTEDTAVYYCVGGGDFWGQGTLVTVSS
VL: DIQMTQSPSSLSASVGDRVTITCRASQEISVYLGWFQQKPGKAPKRLIYGAFKLQSGVPSRFSGSRSGTEYTLTISSLQPEDFATYYCLQYVRYPWTFGGGTKVEIK
notes: human IgG4 kappa (HuG4K)

EC50 [8]: 0.47 nM
B11: Tau01 HMKL (antibody, V domains shown)
VH: LVQLVESGGGLVQPGGSLKLSCAASGFTFNTYAMNWVRQASGKGLEWVARIRSKSNNYATYYAASVKGRFTISRDDSKSMAYLQMDSLKTEDTAVYYCVGGGDFWGQGTLVTVSS
VL: DIQMTQSPSSLSASVGDRVTITCRASQEISVYLSWFQQKPGKAIKRLIYGAFKLQSGVPSRFSGSRSGTEYTLTISSLQPEDFATYYCLQYVRYPWTFGGGTKVEIK
notes: human IgG4 kappa (HuG4K)

EC50 [6]: 0.537 nM
B14: Tau01 HCKO (antibody, V domains shown)
VH: LVQLVESGGGLVQPGGSLKLSCAASGFTFNTYAMNWVRQASGKGLEWVGRIRSKSNNYATYYAASVKGRFTISRDDSKSMAYLQMDSLKTEDTAVYYCVGGGDFWGQGTLVTVSS
VL: DIQMTQSPSSLSASVGDRVTITCRASQEISVYLGWYQQKPGKAPKRLIYGAFSLQSGVPSRFSGSRSGTEYTLTISSLQPEDFATYYCLQYVRYPWTFGGGTKVEIK
notes: human IgG4 kappa (HuG4K)
